Laboratory results as given in patent publication US20160201097A1, “Materials and Methods of Producing 7-Carbon Monomers” (INVISTA North America S.á.r.l., priority 2014, published 2016).

B1: SEQ ID NO: 9: Pseudomonas syringae ω-transaminase, N-terminal HIS tagged (protein, listed as Pseudomonas syringae)
chain: MSANNPQTLEWQALSSEHHLAPFSDYKQLKEKGPRIITRAEGVYLWDSEGNKILDGMSGLWCVAIGYGREELADAASKQMRELPYYNLFFQTAHPPVLELAKAISDIAPEGMNHVFFTGSGSEGNDTMLRMVRHYWALKGQPNKKTIISRVNGYHGSTVAGASLGGMTYMHEQGDLPIPGVVHIPQPYWFGEGGDMTPDEFGIWAAEQLEKKILELGVENVGAFIAEPIQGAGGVIVPPDSYWPKIKEILSRYDILFAADEVICGFGRTSEWFGSDFYGLRPDMMTIAKGLTSGYVPMGGLIVRDEIVAVLNEGGDFNHGFTYSGHPVAAAVALENIRILREEKIVERVRSETAPYLQKRLRELSDHPLVGEVRGVGLLGAIELVKDKTTRERYTDKGAGMICRTFCFDNGLIMRAVGDTMIIAPPLVISFAQIDELVEKARTCLDLTLAVLQG
modifications: N-terminal His tag
notes: Pseudomonas syringae ω-transaminase, N-terminal HIS tagged
B2: SEQ ID NO: 12: Vibrio fluvialis ω-transaminase, N-terminal HIS tagged (protein, listed as Vibrio fluvialis)
chain: MNKPQSWEARAETYSLYGFTDMPSLHQRGTVVVTHGEGPYIVDVNGRRYLDANSGLWNMVAGFDHKGLIDAAKAQYERFPGYHAFFGRMSDQTVMLSEKLVEVSPFDSGRVFYTNSGSEANDTMVKMLWFLHAAEGKPQKRKILTRWNAYHGVTAVSASMTGKPYNSVFGLPLPGFVHLTCPHYWRYGEEGETEEQFVARLARELEETIQREGADTIAGFFAEPVMGAGGVIPPAKGYFQAILPILRKYDIPVISDEVICGFGRTGNTWGCVTYDFTPDAIISSKNLTAGFFPMGAVILGPELSKRLETAIEAIEEFPHGFTASGHPVGCAIALKAIDVVMNEGLAENVRRLAPRFEERLKHIAERPNIGEYRGIGFMWALEAVKDKASKTPFDGNLSVSERIANTCTDLGLICRPLGQSVVLCPPFILTEAQMDEMFDKLEKALDKVFAEVA
modifications: N-terminal His tag
notes: Vibrio fluvialis ω-transaminase, N-terminal HIS tagged
B3: SEQ ID NO: 3: Mycobacterium smegmatis carboxylate reductase, N-terminal HIS tagged (protein, listed as Mycobacterium smegmatis)
chain: MTSDVHDATDGVTETALDDEQSTRRIAELYATDPEFAAAAPLPAVVDAAHKPGLRLAEILQTLFTGYGDRPALGYRARELATDEGGRTVTRLLPRFDTLTYAQVWSRVQAVAAALRHNFAQPIYPGDAVATIGFASPDYLTLDLVCAYLGLVSVPLQHNAPVSRLAPILAEVEPRILTVSAEYLDLAVESVRDVNSVSQLVVFDHHPEVDDHRDALARAREQLAGKGIAVTTLDAIADEGAGLPAEPIYTADHDQRLAMILYTSGSTGAPKGAMYTEAMVARLWTMSFITGDPTPVINVNFMPLNHLGGRIPISTAVQNGGTSYFVPESDMSTLFEDLALVRPTELGLVPRVADMLYQHHLATVDRLVTQGADELTAEKQAGAELREQVLGGRVITGFVSTAPLAAEMRAFLDITLGAHIVDGYGLTETGAVTRDGVIVRPPVIDYKLIDVPELGYFSTDKPYPRGELLVRSQTLTPGYYKRPEVTASVFDRDGYYHTGDVMAETAPDHLVYVDRRNNVLKLAQGEFVAVANLEAVFSGAALVRQIFVYGNSERSFLLAVVVPTPEALEQYDPAALKAALADSLQRTARDAELQSYEVPADFIVETEPFSAANGLLSGVGKLLRPNLKDRYGQRLEQMYADIAATQANQLRELRRAAATQPVIDTLTQAAATILGTGSEVASDAHFTDLGGDSLSALTLSNLLSDFFGFEVPVGTIVNPATNLAQLAQHIEAQRTAGDRRPSFTTVHGADATEIRASELTLDKFIDAETLRAAPGLPKVTTEPRTVLLSGANGWLGRFLTLQWLERLAPVGGTLITIVRGRDDAAARARLTQAYDTDPELSRRFAELADRHLRVVAGDIGDPNLGLTPEIWHRLAAEVDLVVHPAALVNHVLPYRQLFGPNVVGTAEVIKLALTERIKPVTYLSTVSVAMGIPDFEEDGDIRTVSPVRPLDGGYANGYGNSKWAGEVLLREAHDLCGLPVATFRSDMILAHPRYRGQVNVPDMFTRLLLSLLITGVAPRSFYIGDGERPRAHYPGLTVDFVAEAVTTLGAQQREGYVSYDVMNPHDDGISLDVFVDWLIRAGHPIDRVDDYDDWVRRFETALTALPEKRRAQTVLPLLHAFRAPQAPLRGAPEPTEVFHAAVRTAKVGPGDIPHLDEALIDKYIRDLREFGLI
modifications: N-terminal His tag
notes: Mycobacterium smegmatis carboxylate reductase, N-terminal HIS tagged

Legend:
Assay type in all cases: biochemical
[1] = ω-transaminase activity: 7-aminoheptanol to 7-oxoheptanol (L-alanine formation by RP-HPLC); conditions: for acceptance of 7-aminoheptanol as substrate (conversion of pyruvate to L-alanine): cell free extract, 10 mM 7-aminoheptanol, 10 mM pyruvate, pH 7.5, 25° C., 4 h, against the empty vector control (FIG. 17); for acceptance of 7-oxoheptanol as substrate forming 7-aminoheptanol: concluded from the reversibility of the ω-transaminase activity (Example 1)
Method: A nucleotide sequence encoding an N-terminal His-tag was added to the Chromobacterium violaceum, Pseudomonas syringae and Rhodobacter sphaeroides nucleic acids encoding the ω-transaminases of SEQ ID NOs: 7, 9 and 10, respectively (see FIG. 6) such that N-terminal HIS tagged ω-transaminases could be produced. The modified genes were cloned into a pET21a expression vector under the T7 promoter. Each expression vector was transformed into a BL21[DE3] E. coli host. Each resulting recombinant E. coli strain were cultivated at 37° C. in a 250 mL shake flask culture containing 50 mL LB media and antibiotic selection pressure, with shaking at 230 rpm. Each culture was induced overnight at 16° C. using 1 mM IPTG.
(§1) The pellet from each induced shake flask culture was harvested via centrifugation. Each pellet was resuspended and lysed via sonication. The cell debris was separated from the supernatant via centrifugation and the cell free extract was used immediately in enzyme activity assays.
Enzyme activity assays in the reverse direction (i.e., 7-aminoheptanol to 7-oxoheptanol) were performed in a buffer composed of a final concentration of 50 mM HEPES buffer (pH=7.5), 10 mM 7-aminoheptanol, 10 mM pyruvate, and […] pyridoxyl 5′ phosphate. Each enzyme activity assay reaction was initiated by adding cell free extract of the ω-transaminase gene product or the empty vector control to the assay buffer containing the 7-aminoheptanol and then incubated at 25° C. for 4 h, with shaking at 250 rpm. The formation of L-alanine was quantified via RP-HPLC.

[2] = ω-transaminase activity, reverse direction: 7-aminoheptanoate to pimelate semialdehyde (L-alanine formation by RP-HPLC); conditions: cell free extract, 10 mM 7-aminoheptanoate, 10 mM pyruvate, pH 7.5, 25° C., 4 h; against the empty vector control (FIG. 13)
Method: (§2) A nucleotide sequence encoding an N-terminal His-tag was added to the nucleic acid sequences from Chromobacterium violaceum, Pseudomonas syringae, Rhodobacter sphaeroides, and Vibrio fluvialis encoding the ω-transaminases of SEQ ID NOs: 7, 9, 10 and 12, respectively (see FIG. 6) such that N-terminal HIS tagged ω-transaminases could be produced. Each of the resulting modified genes was cloned into a pET21a expression vector under control of the T7 promoter and each expression vector was transformed into a BL21[DE3] E. coli host. The resulting recombinant E. coli strains were cultivated at 37° C. in a 250 mL shake flask culture containing 50 mL LB media and antibiotic selection pressure, with shaking at 230 rpm. Each culture was induced overnight at 16° C. using 1 mM IPTG.
as §1
Enzyme activity assays in the reverse direction (i.e., 7-aminoheptanoate to pimelate semialdehyde) were performed in a buffer composed of a final concentration of 50 mM HEPES buffer (pH=7.5), 10 mM 7-aminoheptanoate, 10 mM pyruvate and 100 μM pyridoxyl 5′ phosphate. Each enzyme activity assay reaction was initiated by adding cell free extract of the ω-transaminase gene product or the empty vector control to the assay buffer containing the 7-aminoheptanoate and incubated at 25° C. for 4 h, with shaking at 250 rpm. The formation of L-alanine from pyruvate was quantified via RP-HPLC.

[3] = ω-transaminase activity, forward direction: pimelate semialdehyde to 7-aminoheptanoate (pyruvate formation by RP-HPLC); conditions: for acceptance of pimelate semialdehyde as substrate (conversion of L-alanine to pyruvate): cell free extract, 10 mM pimelate semialdehyde, 10 mM L-alanine, pH 7.5, 25° C., 4 h, against the empty vector control (FIG. 14); for reversibility of ω-transaminase activity: pimelate semialdehyde accepted, 7-aminoheptanoate synthesized: conclusion from reverse and forward assays of Example 1
Method: as §2, §1
Enzyme activity in the forward direction (i.e., pimelate semialdehyde to 7-aminoheptanoate) was confirmed for the transaminases of SEQ ID NO 9, SEQ ID NO 10 and SEQ ID NO 12. Enzyme activity assays were performed in a buffer composed of a final concentration of 50 mM HEPES buffer (pH=7.5), 10 mM pimelate semialdehyde, 10 mM L-alanine and 100 μM pyridoxyl 5′ phosphate. Each enzyme activity assay reaction was initiated by adding a cell free extract of the ω-transaminase gene product or the empty vector control to the assay buffer containing the pimelate semialdehyde and incubated at 25° C. for 4 h, with shaking at 250 rpm. The formation of pyruvate was quantified via RP-HPLC.

[4] = carboxylate reductase activity: N7-acetyl-7-aminoheptanoate to N7-acetyl-7-aminoheptanal (NADPH consumption, A340); conditions: purified enzyme enhanced by sfp gene product, 2 mM N7-acetyl-7-aminoheptanoate, pH 7.5, room temperature, 20 min; against the empty vector control (FIG. 10)
Method: The activity of each of the N-terminal His-tagged carboxylate reductases of SEQ ID NOs: 3, 5, and 6 (see Examples 2 and 3, and FIG. 6) for converting N7-acetyl-7-aminoheptanoate to N7-acetyl-7-aminoheptanal was assayed in triplicate in a buffer composed of a final concentration of 50 mM HEPES buffer (pH=7.5), 2 mM N7-acetyl-7-aminoheptanoate, 10 mM MgCl2, 1 mM ATP, and 1 mM NADPH. The assays were initiated by adding purified carboxylate reductase and phosphopantetheine transferase or the empty vector control to the assay buffer containing the N7-acetyl-7-aminoheptanoate then incubated at room temperature for 20 min. The consumption of NADPH was monitored by absorbance at 340 nm.

Molecule	acceptance of 7-aminoheptanol as substrate (conversion of pyruvate to L-alanine) [1]	acceptance of 7-oxoheptanol as substrate forming 7-aminoheptanol [1]	acceptance of 7-aminoheptanoate as substrate (conversion of pyruvate to L-alanine) [2]	acceptance of pimelate semialdehyde as substrate (conversion of L-alanine to pyruvate) [3]	reversibility of ω-transaminase activity: pimelate semialdehyde accepted, 7-aminoheptanoate synthesized [3]	acceptance of N7-acetyl-7-aminoheptanoate as substrate (NADPH consumption) [4]
SEQ ID NO: 10: Rhodobacter sphaeroides ω-transaminase, N-terminal HIS tagged	accepted 7-aminoheptanol as substrate	accept 7-oxoheptanol as substrate and form 7-aminoheptanol	accepted 7-aminoheptanoate as substrate	accepted pimelate semialdehyde as substrate	accepted pimelate semialdehyde as substrate and synthesized 7-aminoheptanoate as a reaction product	–
B1	accepted 7-aminoheptanol as substrate	accept 7-oxoheptanol as substrate and form 7-aminoheptanol	accepted 7-aminoheptanoate as substrate	accepted pimelate semialdehyde as substrate	accepted pimelate semialdehyde as substrate and synthesized 7-aminoheptanoate as a reaction product	–
B2	–	–	accepted 7-aminoheptanoate as substrate	accepted pimelate semialdehyde as substrate	accepted pimelate semialdehyde as substrate and synthesized 7-aminoheptanoate as a reaction product	–
B3	–	–	–	–	–	accepted N7-acetyl-7-aminoheptanoate as substrate
